# Source: the DeepSol protein solubility set
# Experiment: soluble on expression in E. coli; label from the status in PepcDB or PDB records
row,Sequence,soluble on expression in E. coli
1,MSLSEKKVHLRLRKELSVPIAVVENESLAQLSYEEESQASLMDISMEQQQLRLHSHFDNSKVFTENNRYIVKTLQTDYSSGFSNDDELNGYIDMQIGYGLVNDHKKVYIWNIHSTQKDTPYITVPFRSDDNDEIAVAPRCILTFPATMDESPLALNPNDQDETGGLIIIKGSKAIYYEDINSINNLNFKLSEKFSHELELPINSSGGEKCDLMLNCEPAGIVLSTNMGRIFFITIRNSMGKPQLKLGKLLNKPFKLGIWSKIFNTNSSVVSLRNGPILGKGTRLVYITTNKGIFQTWQLSATNSHPTKLIDVNIYEAILESLQDLYPFAHGTLKIWDSHPLQDESSQLFLSSIYDSSCNETYYILSTIIFDSSSNSFTIFSTYRLNTFMESITDTKFKPKIFIPQMENANDTNEVTSILVMFPNAVVITQVNSKLDSSYSMRRKWEDIVSLRNDIDIIGSGYDSKSLYVLTKQMGVLQFFVKENEETNSKPEVGFVKSHVDQAVYFSKINANPIDFNLPPEISLDQESIEHDLKLTSEEIFHSNGKYIPPMLNTLGQHLSVRKEFFQNFLTFVAKNFNYKISPELKLDLIEKFEILNCCIKFNSIIRQSDVLNDIWEKTLSNYNLTQNEHLTTKTVVINSPDVFPVIFKQFLNHVVFVLFPSQNQNFKLNVTNLINLCFYDGILEEGEKTIRYELLELDPMEVDTSKLPWFINFDYLNCINQCFFDFTFACEEEGSLDSYKEGLLKIVKILYYQFNQFKIWINTQPVKSVNANDNFININNLYDDNHLDWNHVLCKVNLKEQCIQIAEFYKDLSGLVQTLQTLDQNDSTTVSLYETFFNEFPKEFSFTLFEYLIKHKKLNDLIFRFPQQHDVLIQFFQESAPKYGHVAWIQQILDGSYADAMNTLKNITVDDSKKGESLSECELHLNVAKLSSLLVEKDNLDINTLRKIQYNLDTIDAEKNISNKLKKGEVQICKRFKNGSIREVFNILVEELKSTTVVNLSDLVELYSMLDDEESLFIPLRLLSVDGNLLNFEVKKFLNALVWRRIVLLNASNEGDKLLQHIVKRVFDEELPKNNDFPLPSVDLLCDKSLLTPEYISETYGRFPIDQNAIREEIYEEISQVETLNSDNSLEIKLHSTIGSVAKEKNYTINYETNTVEYEGHHHHHH,soluble
2,MSTLLKSAKSIVPLMDRVLVQRIKAQAKTASGLYLPEKNVEKLNQAEVVAVGPGFTDANGNKVVPQVKVGDQVLIPQFGGSTIKLGNDDEVILFRDAEILAKIAKD,not soluble
3,MNEQWLEHLPLKDIKEISPVSGGDVNEAYRVETDTDTFFLLVQRGRKESFYAAEIAGLNEFERAGITAPRVIASGEVNGDAYLVMTYLEEGASGSQRQLGQLVAQLHSQQQEEGKFGFSLPYEGGDISFDNHWQDDWCTIFVDKRLDHLKDELLNRGLWDANDIKVYDKVRRQIVAELEKHQSKPSLLHGDLWGGNYMFLKDGRPALFDPAPLYGDREFDIGITTVFGGFTSEFYDAYNKHYPLAKGASYRLEFYRLYLLMVHLLKFGEMYRDSVAHSMNKILQDTTSLEHHHHHH,not soluble
4,MRILFIGDVVGSPGRDMVKEYVPKLKTKYKPHFTIINGENAAHGKGLTEKIYHSLIQSGADAITMGNHTWDKKEIFDFIDDVPNLVRPANFPEGTPGKGITYVKANGKELAVINLQGRTFLPPLDDPFLKADELSPEAAKRTPYIFIDFHAEATSEKLALGWYTDGRASAVVGTHTHVQTADNRILPKGTAYITDVGMTGPYDGILGMDRETIIKRFKTNLPVRFTVAEGKTTLSGVVIDIDDQTKKAVKIERILINDDHMFFE,soluble
5,MKKIGIIGGTTPESTLYYYKKYIEISREKFEKYFYPELIIYSINFKEFFQNPEGWEGRKKILINAAKALERAGAELIAFAANTPHLVFDDVQREVNVPMVSIIDAVAEEILKRGVRKVLLLGTKTTMTADFYIKTLEEKGLEVVVPNDEEKEELNRIIFEELAFGNLKNKEWIVRLIEKYRESEGIEGVILGCTELPLAIKQGDVSVEVFDSAEIHMRKLIELASE,soluble
6,MHKEIAKELLLLAGGKNNIISISHCTTRLRFDVKDETKIDIHAIENLQGVQGTFFRYGLFQIIFGAGVVNKIYKEVVHVWETAPSEEPVHQKKASRKLNPAAAFAKTLSDI,not soluble
7,MSLYLWNIQISSAFLEVISLYEVTLRNTLVKALEPNYRQYSILNDNFIRALRHETREALIVAVNKVSLNSHKYSAVRGAHGMIQPLKIDPRDVPVGKVVAELNFVFWENMLSKTHSSRWKAHYKEAFPNLVVEPNIGIECQIARIHQITGKVRELRNRICHHEPIFDENKINLSELYTQIKEVLNYISRLDKYTKEGHHHHHH,not soluble
8,MLCAQTFSEEDFRIRGYVDIHRLDTTIRLALIYSTTDNFVGEDMYGDFDKAYFEKGFAERIHQAQRLLRKEHPDYSLLIYDASRPISIQRRMYTLVKGTSKAVYVANGNRGGKHNYGVAVDLTIVDRDGKPLDMGTPVDHFGRAAHVGQEERLAADGLISREAVRNRRLLRRIMKSVGLVPYRREWWHYELPESMSHTRSHYRLLDF,not soluble
9,MNQVTTYLWETHLPGGSHWSGVVRRGTTLRLTDVSGGANAAVLFYNLEEKLERYNMADTLKTQHTFCLTKGHACHSDMGRIFCCITEDTAGWHDTVCGLSDAELIQQKYGTGRYQELRNDMYRNGLDGMLVELGKWGLGRRDVVSNINFFSKVTANSVGELQFHVSHSKAGDHVDLAFAMDTLVVLSAAPHPLDPAATYRPGAVNLAVFPSTPAVTGACAHIAENARGLENTRRLYAYGGVKLEHHHHHH,soluble
10,MAHHHHHHMYYIYIYIYENGSAYQKDNDNTVENKLLENLYKLELIDNYDTPLSRVSRTDKGVSARINGINLRLNIKYENVPIFEIEKKYVKELKKKLKNIHIHDIKHVSNTFDARLNCIQRTYVYFFINKNYNIEKMKKAAKLFIGEHDFSNCCKKGKNVTSNRRTVLKFDIRNIDKHFYYFKIKGISFLYNQIRHMVAILFLVGKGLLDNNDVNNILNNTSTKRKNYHIADENGLLLYSFKFNDYKYNNHVNNKIFLNVMNKYIQSTMLLVSLCHPLKLENKNEDFFENLDDEDIKNDVIHNNMIKEINKK,not soluble
11,MSLAEFFKDSKASLELRNFYMNKDFRDEVSSAANQQSKQDEWAQGFILKYESGYTEGPVGFGLDMLGLLGVKLDSGPGEAGTGLLPGGYNNRAPDDYSELGVTGKVRFSKTELKVGTLLPKNPVLVYNDTRLLPQTFQGGNLQIKEIEGLTLDFGYLDEVNYRNSTHNEEMSLVNANRRNITIKPGAENEANFFMYGGATYQVTKALTATYYYGELDDLYKQHAVNLVHVLPLGKSSLKTDLRYARSTDDGEAHVDNHAFGLLTTYAMGAHKFGLGLQKMQGDTGFAQINGTDPFLVNYIQVNDFGNADERSWQLRYDYDFAALGIPGLTFMTRYVSGDHVDRGPGSDGKEWERDMDIAYVFQSGMLKNLSLKWRNATMRSNFVRDVDENRLIVSYTLPLLEGHHHHHH,not soluble
12,ATEATNATNNQSTQVSQATSQPINFQVQKDGSSEKSHMDDYMQHPGKVIKQNNKYYFQTVLNNASFWKEYKFYNANNQELATTVVNDNKKADTRTINVAVEPGYKSLTTKVHIVVPQINYNHRYTTHLEFEKAIPTLADAAK,soluble
13,MPFCPEEFYCRITQNIESLNNIAKIQHAANTDYLTDLANRRAFFRSAESRIKEYINKKVPYCLAMIDVDFFKKVNDTYGHDSGDQVLKVIALYMRKHFGAGLTARLGGEEFAVLLHGLDADYLHNKLDDFRREIAVSSIPAGDTSISITLSLGVVFDSEDELSKQMNEADNALYAAKENGRNQIVVFGAELDDLEHHHHHH,not soluble
14,GSHMDHLPMPKFGPLAGLRVVFSGIEIAGPFAGQMFAEWGAEVIWIENVAWADTIRVQPNYPQLSRRNLHALSLNIFKDEGREAFLKLMETTDIFIEASKGPAFARRGITDEVLWQHNPKLVIAHLSGFGQYGTEEYTNLPAYNTIAQAFSGYLIQNGDVDQPMPAFPYTADYFSGLTATTAALAALHKVRETGKGESIDIAMYEVMLRMGQYFMMDYFNGGEMCPRMSKGKDPYYAGCGLYKCADGYIVMELVGITQIEECFKDIGLAHLLGTPEIPEGTQLIHRIECPYGPLVEEKLDAWLATHTIAEVKERFAELNIACAKVLTVPELESNPQYVARESITQWQTMDGRTCKGPNIMPKFKNNPGQIWRGMPSHGMDTAAILKNIGYSENDIQELVSKGLAKVED,soluble
15,MYSDSRKRSSDDLIDNSDESKKPKESRNLYCTLAAYGCRKGERADMQDTHIMLPKFDLGTEKSFLSRASFFAIFDGHAGPRAAEHCQSQMGKTVKEKLAKFSDFPTLTKSLKQTFTESYKAVDDGFLAIAKQNKPIWKDGTTATTMIILNNVIYVANIGDSRAVVARKKEDGSFAPVCLTVDHDPMSHDERMRIQKAGAVVKDGRINGVIEVSRSIGDLPFKSLGIISTPDLKKLTLTKNDL,not soluble
16,MGSMRICIFMARGLEGCGVTKFSLEQRDWFIKNGHEVTLVYAKDKSFTRTSSHDHKSFSIPVILAKEYDKALKLVNDCDILIINSVPATSVQEATINNYKKLLDNIKPSIRVVVYQHDHSVLSLRRNLGLEETVRRADVIFSHSDNGDFNKVLMKEWYPETVSLFDDIEEAPTVYNFQPPMDIVKVRSTYWKDVSEINMNINRWIGRTTTWKGFYQMFDFHEKFLKPAGKSTVMEGLERSPAFIAIKEKGIPYEYYGNREIDKMNLAPNQPAQILDCYINSEMLERMSKSGFGYQLSKLNQKYLQRSLEYTHLELGACGTIPVFWKSTGENLKFRVDNTPLTSHDSGIIWFDENDMESTFERIKELSSDRALYDREREKAYEFLYQHQDSSFCFKEQFDIITK,soluble
17,MGSDKIHHHHHHMGKTTRKVQITGGSTFIVSLPPEWVKRNGITKGSEISISDDGNDLVISSSNPDLPEVSKKIIIPPNYTGKPLQRLLTSSYISGFDTLSIVSKEKMGSELRDDIKRFSKVVMGIEIIEETSKSVVLQNVLNVKTFPLSKAIRRMSLNVGTMIEDTIKAIEDYDEELFQNVIERDDEVDRYQWYIYREVKNHCQYEDSNVFMLVLSRILERMADHTVNICIAMKDRKAVNGRMEMIDNLKFSLDVYNHAVESFYSKNFKVLDGIINQKSEINERKFKLLKILSYDVVLSSIAEEISRIGLYGTDIAELAMDLILSDKLEFSVQ,not soluble
18,MAHHHHHHMSSETPRASTHDVFCAALQMLGGAQIFAQPLIQRTAVASLSPRSRNGNQASAVIAESATSRDAGTNHLPDPGIDVDAKPVDKPCCRGEQPCERTGTAPVKAMVTLCDPPARCEGVLAAQNAQRRLHHLRFFGGRFFLADGVTASESQQTSGYASTATSNAHVSDDCSSTWELKASYFQAMKETLTAVMGRRLRSQLLCDDSTADTGTVLRAPVPRGATGASTMTTSARQAALRRRMEAFTSAVVHQESILDAVAAACRARLNTVGGATAAPTPCFFFSALPQISVRQWAGSHLYKHWLVRCGTPRASLPSTATNPQKSGPHGAPMLTSPSAPRAPATALVLPLDVEAELRKYWKLHDEAAARARLEALRCNDAQAFAEHVSLLKVSALLEIMEKTEGFMRRIGLRLQFHATQAAANRGGDGARAVPTTRAAPAALAEPGIADRPGGAAGCHGSEYERFRSYVASTKNEFKLMHRVDVFVAAQPAGLDATLLPHQMDGLRFLASLDANHINGILADEMGVGKTIQTLAFLLYLKNRRGETGETGEGSGGRVAPPRVGSRLPHLVLAPLSVVREWREACEQFVPSALHVAMYQELADPVHEAAAYDLVLLPVHAIRYVGAEAARIQWHYIVVDEAHKAVANLSTITAQRILRPLVFAPPGADWNAAQQRLAGALVAAALSESGGVHRQ,not soluble
19,DLILPFYKAGKVSFYQGDLDVLINFLEPDVLVNAANGDLRHVGGVARAIDVFTGGKLTKRSKEYLKSSKAIAPGNAVLFENVLEHLSVLNAVGPRNGDSRVEGKLCNVYKAIAKCDGKILTPLISVGIFKVKLEVSLQCLLKTVTDRDLNVFVYTDQERVTIENFFNG,soluble
